Experimental data taken from publication PMC3229523, “Identification of Lactoferricin B Intracellular Targets Using an Escherichia coli Proteome Chip” (PLoS ONE, 2011).
Ends that are not written are not given here. * marks the point of attachment. Biotin = O=C1N[C@H]2[C@H](CS[C@H]2CCCCC(=O)*)N1

Key:
Assay in all cases: peptide or protein array; E. coli proteome chip: purified His-tagged proteins printed in duplicate on Fullmoon slides, blocked with 1% BSA; 10 nM N-terminal biotinylated LfcinB with 1% BSA, room temperature, 1 h; detected with DyLight 649-labeled streptavidin, ratio to DyLight 549-labeled anti-His antibody; ProCAT normalisation, local cut-off; triplicate chips
Conditions in all cases: both partners purified
RplN = RplN (E. coli K-12, UniProt P0ADY3 1-123)
AceK = target: T1, AceK (E. coli K-12, UniProt P11071 1-578)
T1 construct: AceK, E. coli K-12
T1 sequence (looked up): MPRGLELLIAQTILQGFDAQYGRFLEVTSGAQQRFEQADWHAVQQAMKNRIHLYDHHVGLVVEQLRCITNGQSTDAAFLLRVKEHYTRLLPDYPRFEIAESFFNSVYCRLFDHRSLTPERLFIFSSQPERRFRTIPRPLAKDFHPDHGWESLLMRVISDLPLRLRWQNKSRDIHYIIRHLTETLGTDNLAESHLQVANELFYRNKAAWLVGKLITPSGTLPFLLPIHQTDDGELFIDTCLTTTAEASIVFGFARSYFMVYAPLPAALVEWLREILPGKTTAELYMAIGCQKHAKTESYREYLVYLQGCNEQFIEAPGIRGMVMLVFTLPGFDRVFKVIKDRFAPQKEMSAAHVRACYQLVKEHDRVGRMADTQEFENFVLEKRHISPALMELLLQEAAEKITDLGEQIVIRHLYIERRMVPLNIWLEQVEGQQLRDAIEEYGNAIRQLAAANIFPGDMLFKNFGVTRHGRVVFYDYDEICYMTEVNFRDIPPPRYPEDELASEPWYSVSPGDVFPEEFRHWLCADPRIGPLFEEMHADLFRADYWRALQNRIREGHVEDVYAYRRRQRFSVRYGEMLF

HemC = target: T2, HemC (E. coli K-12, UniProt P06983 1-313)
T2 construct: HemC, E. coli K-12
T2 sequence (looked up): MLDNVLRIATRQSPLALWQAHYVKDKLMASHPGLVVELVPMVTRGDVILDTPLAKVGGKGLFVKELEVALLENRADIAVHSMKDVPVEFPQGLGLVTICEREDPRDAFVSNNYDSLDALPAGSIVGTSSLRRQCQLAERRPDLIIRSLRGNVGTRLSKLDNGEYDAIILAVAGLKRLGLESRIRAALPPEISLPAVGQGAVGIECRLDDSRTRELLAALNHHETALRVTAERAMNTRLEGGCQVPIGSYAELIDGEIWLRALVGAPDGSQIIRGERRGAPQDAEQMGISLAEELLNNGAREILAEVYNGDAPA

YbeY = target: T3, YbeY (E. coli K-12, UniProt P0A898 1-155)
T3 construct: YbeY, E. coli K-12
T3 sequence (P0A898 whole entry): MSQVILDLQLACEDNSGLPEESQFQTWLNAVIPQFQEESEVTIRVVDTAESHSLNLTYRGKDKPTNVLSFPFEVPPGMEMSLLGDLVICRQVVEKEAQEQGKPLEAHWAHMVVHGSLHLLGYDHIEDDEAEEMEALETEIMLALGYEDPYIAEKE

YfbR = target: T4, YfbR (E. coli K-12, UniProt P76491 1-199)
T4 construct: YfbR, E. coli K-12
T4 sequence (looked up): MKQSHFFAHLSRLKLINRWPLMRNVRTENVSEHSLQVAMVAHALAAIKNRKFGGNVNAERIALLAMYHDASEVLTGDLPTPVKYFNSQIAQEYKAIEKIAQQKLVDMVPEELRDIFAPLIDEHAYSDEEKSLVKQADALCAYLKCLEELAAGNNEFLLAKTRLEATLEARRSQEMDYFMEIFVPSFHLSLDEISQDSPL

HyaE = target: T5, HyaE (E. coli K-12, UniProt P19931 1-132)
T5 construct: HyaE, E. coli K-12
T5 sequence (looked up): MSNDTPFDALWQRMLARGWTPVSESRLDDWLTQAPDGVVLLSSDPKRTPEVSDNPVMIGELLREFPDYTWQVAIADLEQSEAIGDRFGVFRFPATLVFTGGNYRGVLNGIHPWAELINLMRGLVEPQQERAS

YhjH = target: T6, YhjH (E. coli K-12, UniProt P37646 1-255)
T6 construct: YhjH, E. coli K-12
T6 sequence (looked up): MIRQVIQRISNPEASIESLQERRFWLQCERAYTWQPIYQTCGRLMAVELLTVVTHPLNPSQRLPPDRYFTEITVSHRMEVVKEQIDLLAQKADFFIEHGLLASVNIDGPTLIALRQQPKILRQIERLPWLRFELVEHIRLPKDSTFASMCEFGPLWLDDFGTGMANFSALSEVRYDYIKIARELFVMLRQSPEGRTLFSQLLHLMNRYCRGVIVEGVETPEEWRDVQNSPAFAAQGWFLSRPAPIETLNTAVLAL

Measured: binding result

B1: N-terminal biotinylated Lactoferricin B (peptide, UniProt P24627 36-60, looked up)
peptide: Biotin-FKCRRWQWRMKKLGAPSITCVRRAF
modifications: ends and bridges not checked
notes: lactoferricin B (LfcinB), cationic antimicrobial peptide of 25 amino acids; also called biotinylated LfcinB; biotin-labeled LfcinB; source: bought: Kelowna Inc
binds: RplN | AceK | HemC | YbeY | YfbR | HyaE | YhjH
